{
  "source": "patent US9023353B2",
  "about": "“Anti-(+)—methamphetamine monoclonal antibodies” (Board of Trustees University of Arkansas, priority 2013, dated 2015)",
  "key": {"[1]": {"assay": "long-term in vivo METH binding function during continuous sc (+)-METH infusion", "design": "species or system Sprague-Dawley rats", "conditions": "rats, single iv mAb dose 180 mg/kg, sc (+)-METH infusion 5.6 mg/kg/day, serum METH to day 13", "experimental": "FIG. 1 depicts two graphs showing changes in METH in vivo binding by anti-METH monoclonal antibodies (mAbs) in the presence of a 13 day continuous METH infusion. Once METH achieved steady-state levels (pre-mAb) in each of the Sprague-Dawley rats (n=2 per group), a single dose of vehicle treatment (METH only) or of treatment with three different anti-METH mAbs were given as an iv bolus (180 mg/kg, equimolar in binding sites to the METH body burden). Serum samples were collected before the mAb treatment and at various time points after mAb treatment for determination of METH concentrations over time (A). Values represent the mean METH concentration of each group for each time point. METH AUC data is shown in (B). […]\nAbout 16 h after pumps implantation, the rats were anesthetized with halothane. […] METH concentrations in serum samples were then determined by liquid chromatograph/mass spectrometry/mass spectrometry (LC/MS/MS) analysis by a previously reported method from our laboratory (Laurenzana E M et al. Drug Metab Dispos (1995) 23: 271-278).\nThe route of (+)-METH dosing was a subcutaneous (sc) infusion. […] Body weights, eating behavior, and general health observations were recorded for each animal. (+)-METH concentrations were determined by LC/MS/MS, similar to the method described by described by (Laurenzana E M et al. Drug Metab Dispos (1995) 23: 271-278). […]"}, "[2]": {"assay": "terminal elimination half-life in rats", "type": "in vivo", "conditions": "unpublished finding"}, "[3]": {"assay": "(±)-METH priming-induced reinstatement (relapse) of lever pressing", "type": "in vivo, male Long Evans rat", "conditions": "for response rate (lever presses on reinforced lever): Day 1, 1 mg/kg ip (±)-METH prime", "experimental": "The male Long Evans rat was chosen as the animal model for this study because it is a preferred rodent species for preclinical toxicity testing of drug self-administration paradigms. Commercially obtained test chambers equipped with two retractable levers, a white cue light positioned above each lever, a 5-w house light, and a Sonalert® tone generator (MED Associates, Inc., St. Albans, Vt.) emitting a 2900 Hz, 60 dB tone were used. Infusions were delivered in a 0.2 ml volume by a 6-s activation of infusion pumps (Model PHS-100; MED Associates, Inc., St. Albans, Vt.). Recordings of lever presses and activations of lights, pumps, and Sonalerts® were accomplished by a microcomputer, interface and associated software (MED-PC® IV, MED Associates, Inc., St. Albans, Vt.).\n(±)-METH self-administration (SA) training sessions were conducted five days per week (M-F) for 2 hrs daily. At the start of (±)-METH SA sessions, the levers were extended and the house light was illuminated. […] At the start of an infusion the house light was extinguished, the Sonalert® was sounded, and the cue lights above each lever flashed at 3 Hz. The Sonalert® and cue lights remained activated during the 6 s infusion. Twenty seconds following the onset of the infusion the house light was re-illuminated, and the opportunity to self-administer (±)-METH was again made available (i.e., each (±)-METH infusion initiated a 20 s period during which lever presses were recorded but were without scheduled consequences and further infusions could not be obtained). Reinforced-lever (right-side) lever presses during the infusions as well as all non-reinforced (left-side) lever presses were recorded, but the latter were without scheduled consequences.\nSA training continued until all three criteria had been met: 1) at least 12 self-administration sessions occurred; 2) at least 15 (±)-METH infusions occurred during each of the last four sessions; and, 3) at least 125 lifetime (±)-METH infusions were obtained. Subsequently, twelve 2-h daily (Mon-Sun) extinction sessions were conducted. […] Other conditions during extinction were identical to those during SA. That is, during extinction sessions, both levers were extended and the house light was activated. Before the last four extinction sessions, an injection of saline (the vehicle for (±)-METH prime) was administered ip 30 min pre-session to acclimate the rats to the injection procedure.\nReinstatement testing followed extinction training. A rat was considered eligible for subsequent reinstatement testing if during the last three extinction sessions the mean number of reinforced-lever lever presses was less than the mean number occurring during the first three extinction sessions. […] One rat in the vehicle group was inadvertently retained, even though its response mean (12.3 responses) during the last three extinction sessions exceeded its first three extinction sessions (11.6 responses). Reinstatement testing occurred across 13 daily (Mon-Sun) 2-h experimental sessions. Conditions during reinstatement testing were identical to those during extinction training with two exceptions.\nThe ip route of (±)-METH exposure during relapse testing was selected mainly for convenience of dosing and to avoid additional use of the catheters. […] The dose volume for each animal was based on the most recent body weight measurement.\nBody weights, eating behavior, and general health observations were recorded for each animal. Analyses of an animal's lever pressing responses to vehicle and (±)-METH-induced relapse to active lever responding were used as a measure of the animal's response to an ip injection of vehicle (control) or (±)-METH (1.0 mg/kg).\nInitially, the number of right-side lever presses occurring during test days between test groups was compared using a two-factor, repeated measures ANOVA (Prism 5 for Macintosh, GraphPad Software, Inc., San Diego, Calif.). […]"}},
  "note": "“Also recorded” adds a separate entry of the source.",
  "data": [
    {"molecule": "Antibody 51: high affinity murine anti-METH monoclonal antibody; light chain SEQ ID NO: 3, heavy chain SEQ ID NO: 4 (antibody, SYTHENSIZED) heavy: EIQLQQSGPELGKPGASVKVSCRASGFSFADYYIYWVKQSHGKSLELIGYIDPFNGGDTYNQIFKGKATLTVDKSSSTAFMYLNSLTSEDSAVYYCAAFRNPSFDFWGQGTTLTVSSAKTTPPSVYPLAPGSAAQTNSMVTLGCLVKGYFPEPVTVTWNSGSLSSGVHTFPAVLQSDLYTLSSSVTVPSSTWPSETVTCNVAHPASSTKVDKKIVPRDCGCKPCICTVPEVSSVFIFPPKPKDVLTITLTPKVTCVVVDISKDDPEVQFSWFVDDVEVHTAQTQPREEQFNSTFRSVSELPIMHQDWLNGKEFKCRVNSAAFPAPIEKTISKTKGRPKAPQVYTIPPPKEQMAKDKVSLTCMITDFFPEDITVEWQWNGQPAENYKNTQPIMDTDGSYFVYSKLNVQKSNWEAGNTFTCSVLHEGLHNHHTEKSLSHSPGK light: QIVLIQSPPIMSASPGEKVTLTCSASSSVSSRYLYWYQQKPGSSPKLWIYGTSNLASGVPARFSGSGSGTSFSLTISSMEAEDAASYFCHQWSSFPFTFGSGTKLEIKRADAAPTVSIFPPSSEQLTSGGASVVCFLNNFYPKDINVKWKIDGSERQNGVLNSWTDQDSKDSTYSMSSTLTLTKDEYERHNSYTCEATHKTSTSPIVKSFNRNEC", "values": [
      {"measurement": "long-term in vivo METH binding function", "setting": "[1]", "value": "showed long-term functional properties"},
      {"measurement": "terminal elimination half-life", "setting": "[2]", "value": "~140", "unit": "h"},
      {"measurement": "responding with subsequent treatments every three days", "setting": "[3]; 30 mg/kg iv", "value": "maintained responding at levels always higher than the control"},
      {"measurement": "increase over control values", "setting": "[3]; 30 mg/kg iv, Day 1", "value": 143, "unit": "%"},
      {"measurement": "response rate (lever presses on reinforced lever)", "setting": "[3]; 30 mg/kg iv", "value": 70, "unit": "presses"},
      {"measurement": "responding with subsequent treatments every three days", "setting": "[3]; 56 mg/kg iv", "value": "progressively lower responses from the Day 1 level of responding"},
      {"measurement": "increase over control values", "setting": "[3]; 56 mg/kg iv, Day 1", "value": 182, "unit": "%"},
      {"measurement": "response rate (lever presses on reinforced lever)", "setting": "[3]; 56 mg/kg iv", "value": 91, "unit": "presses"},
      {"measurement": "lever presses", "setting": "[3]; 100 mg/kg iv, Day 1", "value": "~50", "unit": "lever presses"},
      {"measurement": "responding compared to vehicle", "setting": "[3]; 100 mg/kg iv, Day 1", "value": "at the same level as vehicle treatment responding"},
      {"measurement": "apparent METH dose on ascending side of simulated dose-response curve", "setting": "[3]; 100 mg/kg iv, Day 1, pharmacodynamic simulation, 50 responses", "value": "~0.025", "unit": "mg/kg/inj"},
      {"measurement": "responding compared to control", "setting": "[3]; 100 mg/kg iv, Day 7, after third dose", "value": "significantly reduced; also recorded: near extinction"},
      {"measurement": "responding", "setting": "[3]; 100 mg/kg iv, Day 10, administration stopped", "value": "remained blunted"},
      {"measurement": "responding", "setting": "[3]; 100 mg/kg iv, Day 13, administration stopped", "value": "return to near control levels of responding"},
      {"measurement": "responding compared to control", "setting": "[3]; 100 mg/kg iv, after the second administration", "value": "reduced responding below control levels"}
    ]}
  ]
}
